Numbering of substitutions follows the chain as printed. Names may count otherwise. Where two headings read alike, the source gives them in different places.
Assays:
[1] = Kinetic analyses of 1NF azidation with purified Sav HppD protein variants; type: biochemical
Protocol: Kinetic analyses for wild-type Sav HppD, Az1, and Az2 mediated 1NF azidation were performed in an anaerobic chamber. Ferrous ammonium sulfate (10 μL, 100 mM in water) and sodium azide (10 μL, 1 M in water) were added to a buffer solution containing purified Sav HppD protein variant (20 M, 2.4 mL) and the solution was shaken at 600 rpm for 5 minutes. A 1,2-dimethoxyethane solution of N-fluoroamide substrate 1NF was added to the solution (final concentration ranging from 0.25 mM to 15 mM in reaction solution). An aliquot of 100 μL of the reaction mixture was removed at 3, 6, 9, 12, and 15 minutes and quenched by vortexing with 300 μL 6:4 EtOAc/hexanes solution containing 0.5 mM (final concentration) internal standard 1,2,3-trimethoxybenzene. After centrifugation at 12,000 rpm for 10 mins, an aliquot (200 μL) of the organic layer was taken for GCMS analysis for product quantification.

[2] = Substrate scope of enzymatic azidation of N-fluoroamide substrates (whole E. coli cells); type: biochemical; conditions: across the substrates and conditions tested
Protocol: FIGS. 3A-3C is an illustration with reaction products generated from exemplary substrate compounds. […] Experiments were performed at analytical scale using suspensions of E. coli expressing Sav HppD variants in KPi buffer (pH 7.4) at room temperature under anaerobic conditions for 24 hours. The absolute configuration of enzymatically synthesized azidation product 1N was determined to be S via X-ray crystallography. The absolute configurations of all other azidation products were inferred by analogy. FIG. 3B summarizes a preparative scale synthesis and absolute configuration determination of product 1N. […]
In a typical experiment, ferrous ammonium sulfate (20 μL, 100 mM in water), sodium azide (20 μL, 1 M in water), and N-fluoroamide substrate (20 μL, 1.5 M in DME) were added to E. coli harboring non-heme iron enzyme variant (400 μL, adjusted to the appropriate OD600) in a 2 mL screw top GC vial in an anaerobic chamber. […] An aliquot (200-300 μL) of the organic layer was used for product quantification via GCMS and enantioselectivity via chiral HPLC or chiral GC. The total turnover numbers (TTNs) reported are calculated with respect to non-heme iron enzymes expressed in E. coli and represent the total number of turnovers obtained from the catalyst under the stated reaction conditions. […]

[3] = Azidation reaction condition optimization with Sav HppD Az1 and Az2 (whole E. coli cells); type: biochemical
[4] = 1NF azidation with Sav HppD variants from directed evolution (whole E. coli cells); type: biochemical; conditions: OD600=10, 10 mM 1NF, 25 mM NaN3, 2.5 mM Fe2+; for TTN (total turnover): KPi pH 7.4, anaerobic, 24 hours
Protocol: FIGS. 9A-9C is a computational model of the Sav HppD active site, a reaction scheme, and a plot of total turnovers for various Sav HppD variants. […] The computational model was generated from protein database entry 1T47. FIG. 9B provides the azidation reaction scheme for the reaction screened with a high-throughput screening platform. FIG. 9C provides representative variants identified during the directed evolution of Sav HppD. Experiments were performed at analytical scale using suspensions of E. coli expressing Sav HppD variants (OD600=10), 10 mM substrate 1NF, 25 mM NaN3, 2.5 mM Fe^2+ in KPi buffer (pH 7.4) at room temperature under anaerobic conditions for 24 hours.
In a typical experiment, ferrous ammonium sulfate (20 μL, 100 mM in water), sodium azide (20 μL, 1 M in water), and N-fluoroamide substrate (20 μL, 1.5 M in DME) were added to E. coli harboring non-heme iron enzyme variant (400 μL, adjusted to the appropriate OD600) in a 2 mL screw top GC vial in an anaerobic chamber. The vial was capped and shaken at 680 rpm at room temperature for 24 hours. At the end of the reaction, the vial was opened and the reaction was quenched with 6 mL of a hexanes/ethylacetate solution (4:6 v/v) of internal standard 1,2,3-trimethoxybenzene (0.5 mM final concentration). The reaction mixture was transferred to a 15 mL centrifuge tube, vortexed (10 seconds, 3 times), then centrifuged (10,500×g, 5 min) to completely separate the organic and aqueous layers. An aliquot (200-300 μL) of the organic layer was used for product quantification via GCMS and enantioselectivity via chiral HPLC or chiral GC. The total turnover numbers (TTNs) reported are calculated with respect to non-heme iron enzymes expressed in E. coli and represent the total number of turnovers obtained from the catalyst under the stated reaction conditions.
A high-throughput screening (HTS) platform based on copper-catalyzed azide-alkyne cycloaddition (CuAAC) was utilized for Sav HppD variants, and provided reliable quantification of enzymatic azidation products with a coefficient of variation of 9% and a detection limit of 4 μM. With this HTS platform, more than 5,000 clones generated through error-prone PCR or site-saturation mutagenesis were evaluated.

[5] = type: biochemical, E. coli
Protocol: The reactions were performed by adding ferrous ammonium sulfate (10 μL, 100 mM in water), sodium azide (10 μL, 1 M in water), and N-fluoroamide substrate 1NF (10 μL, 400 mM in DME) to E. coli harboring non-heme iron enzymes (400 μL, adjusted to OD600=40) in a 2 mL screw top GC vial. The vial was capped and shaken at 680 rpm at room temperature for 24 hours. At the end of the reaction, the vial was opened and the reaction was quenched with 0.8 mL of a hexanes/ethylacetate solution (4:6 v/v) of internal standard 1,2,3-trimethoxybenzene (0.5 mM final concentration). The reaction mixture was transferred to a 2 mL microcentrifuge tube, vortexed (10 seconds, 3 times), then centrifuged (14,000×g, 5 min) to completely separate the organic and aqueous layers. An aliquot (200-300 μL) of the organic layer was used for product quantification via GCMS and enantioselectivity via chiral HPLC or chiral GC.

[6] = 1NF (10 μL, 800 mM), OD600 = 10
[7] = 1NF (10 μL, 1.5M), Fe^2+ (20 μL, 100 mM), NaN3 (40 μL, 1M), OD600 = 10
[8] = 1NF (20 μL, 1.5M), Fe^2+ (20 μL, 100 mM), NaN3 (40 μL, 1M), OD600 = 10
[9] = whole E. coli cells OD600=40, 1NF, NaN3, Fe2+, 24 hours
[10] = 1NF (10 μL, 400 mM), Fe^2+ (10 μL, 100 mM), NaN3 (10 μL, 1M), OD600 = 10
[11] = 1NF (20 μL, 1.5M), Fe^2+ (20 μL, 100 mM), NaN3 (40 μL, 1M), OD600 = 40

B1: HppD Az1: sextuple mutant Sav HppD V189A F216A P243A N245Q Q255A L367I, SEQ ID NO: 2 (protein)
chain: MTQTTHHTPDTARQADPFPVKGMDAVVFAVGNAKQAAHYYSTAFGMQLVAYSGPENGSRETASYVLTNGSARFVLTSVIKPATPWGHFLADHVAEHGDGVVDLAIEVPDARAAHAYAIEHGARSVAEPYELKDEHGTVVLAAIATYGKTRHTLVDRTGYDGPYLPGYVAAAPIVEPPAHRTFQAIDHCAGNVELGRMNEWVGFYNKVMGFTNMKEAVGDDIATEYSALMSKVVADGTLKVKFAIQEPALAKKKSAIDEYLEFYGGAGVQHIALNTGDIVETVRTMRAAGVQFLDTPDSYYDTLGEWVGDTRVPVDTLRELKILADRDEDGYLLQIFTKPVQDRPTVFFEIIERHGSMGFGKGNFKAIFEAIEREQEKRGNL
In the case of B1, the “improvement in catalytic efficiency (kcat/KM) compared to the wild-type enzyme” value [1] is reported as “around 2 fold”, the “activity and enantioselectivity” value [2] is reported as “higher activity but lower enantioselectivity than Sav HppD Az2” and the 1/1A [3, 6] is reported as 18.0. It also gave a 1/1F [3, 6] of 52.0, a TTN [3, 6] of 2480 ± 30 and a 1/1A [3, 7] of 19.5. For the same molecule, the 1/1F [3, 7] was 47.0, the TTN [3, 7] was 3100 ± 60 and the 1/1A [3, 8] was 20.0. The 1/1F [3, 8] was 55.0, the TTN [3, 8] was 4290 ± 50 and the 1/1A ([3]; NaN3 (20 μL, 1M)) was 14.0. The 1/1F ([3]; NaN3 (20 μL, 1M)) was 52.0, the TTN ([3]; NaN3 (20 μL, 1M)) was 1550 ± 40 and the 1/1A ([3]; OD600 = 10) was 16.4. It also gave a 1/1F ([3]; OD600 = 10) of 48.0, a TTN ([3]; OD600 = 10) of 1940 ± 20 and a 1/1A ([3]; initial conditions) of 15.5. The 1/1F ([3]; initial conditions) was 54.0, the TTN ([3]; initial conditions) was 1340 ± 40 and the “1N/1A (ratio of 1N to 1A among products)” value [4] was 15.5. The “1N/1F (ratio of 1N to 1F among products)” value [4] was 53.8, the “TTN (total turnover)” value [4] was 1340 ± 40 and the “TTN (total turnover)” value ([4]; listed as Sav HppD Az1) was 1340.

B2: Sav HppD: (4-hydroxyphenyl)pyruvate dioxygenase from Streptomyces avermitilis, SEQ ID NO: 1, Uniprot Q53586 (protein, listed as Streptomyces sp.)
chain: B1 chain with A189V, A216F, A243P, Q245N, A255Q, I367L
With B2 the “1N/1A (ratio of 1N to 1A among products)” value [4] was 3.0, the “1N/1F (ratio of 1N to 1F among products)” value [4] was 9.0 and the “TTN (total turnover)” value [4] was 250 ± 10. The “1A % (yield of 1A)” value ([5]; no azide addition) was 6.5%, the “1F % (yield of 1F)” value ([5]; no azide addition) was 2.2% and the “1A % (yield of 1A)” value [5, 9] was 10.0%. The “1F % (yield of 1F)” value [5, 9] was 3.7% and the “1N % (yield of 1N)” value ([5]; whole E. coli cells OD600=40, 1NF, NaN3, Fe2+, room temperature, 24 hours) was 33.0 ± 2.0%.

B3: HppD Az2: septuple mutant Sav HppD V189A N191A S230L P243G N245F Q255P L367I, SEQ ID NO: 3 (protein)
chain: B1 chain with N191A, A216F, S230L, A243G, Q245F, A255P
With B3 the “improvement in catalytic efficiency (kcat/KM) compared to the wild-type enzyme” value [1] was “around 2 fold”, the 1/1A [3, 10] was 19.3 and the 1/1F [3, 10] was 30.6. For the same molecule, the TTN [3, 10] was 490 ± 20, the 1/1A [3, 8] was 7.0 and the 1/1F [3, 8] was 18.0. For the same molecule, the TTN [3, 8] was 260 ± 30, the 1/1A [3, 11] was 21.0 and the 1/1F [3, 11] was 34.0. The TTN [3, 11] was 1820 ± 50, the “1N/1A (ratio of 1N to 1A among products)” value [4] was 19.3 and the “1N/1F (ratio of 1N to 1F among products)” value [4] was 30.6. The “TTN (total turnover)” value [4] was 490 ± 20 and the “TTN (total turnover)” value ([4]; listed as Sav HppD Az2) was 490.

From US20250263677A1, “BIOCATALYTIC USE OF NONHEME IRON PROTEINS FOR MOLECULAR FUNCTIONALIZATION” (The Johns Hopkins University, priority 2022, published 2025)
